We go through 2 molecules from patent US20240277770A1 (Genentech, published 2024).

One experiment concerns the target T1, HLA-A*02:01 (human).
T1 construct: whole, on cells; MHC class I on a monoallelic cell line (HMy2.C1R)
Description: HLA-I IP and untargeted MS of monoallelic cells.

The target in another experiment is T2, HLA-C*06:02 (human).
T2 construct: whole, on cells; MHC class I on a monoallelic cell line
Description: HLA-I IP (W6/32) and targeted MS of monoallelic HMy2.C1R cells expressing the polyantigen cassette.

In another experiment the target is T3, HLA-C*07:02 (human).
T3 construct: whole, on cells; MHC class I on a monoallelic cell line
The experiment is described as above.

The next experiment addresses T4, HLA-C*07:01 (human).
T4 construct: whole, on cells; MHC class I on a monoallelic cell line
Described as above.

Take IMSDSNYVV: the binding result with HLA-A*02:01 is “binds”.
On to KRNSLALSL, for which the binding result in the experiment with HLA-C*06:02, with HLA-C*07:02 and in the experiment with HLA-C*07:01 was “binds” in each case.
